The values below come from FireProtDB (doi:10.1111/febs.14143).

B1: Guanine nucleotide-binding protein G(i) subunit alpha-3, P08753 (parent)
chain: MGCTLSAEDKAAVERSKMIDRNLREDGEKAAKEVKLLLLGAGESGKSTIVKQMKIIHEDGYSEDECKQYKVVVYSNTIQSIIAIIRAMGRLKIDFGEAARADDARQLFVLAGSAEEGVMTSELAGVIKRLWRDGGVQACFSRSREYQLNDSASYYLNDLDRISQTNYIPTQQDVLRTRVKTTGIVETHFTFKELYFKMFDVGGQRSERKKWIHCFEGVTAIIFCVALSDYDLVLAEDEEMNRMHESMKLFDSICNNKWFTDTSIILFLNKKDLFEEKIKRSPLTICYPEYTGSNTYEEAAAYIQCQFEDLNRRKDTKEVYTHFTCATDTKNVQFVFDAVTDVIIKNNLKECGLY

Values joined by “and” are separate entries in the source; they are usually repeats but may differ in a detail not shown here. Equal entries are not always repeated.

Variants of B1 are the subject of the first series. The settings on record: Rattus norvegicus; pH 7.5; Thermal; DSC; HEPES; NaCl MgCl2 50000 2000; transition: 2; reversible: yes; structure 6MHE; whole UniProt chain shown.
In the case of MGCTLSAEDKAAVERSKMIDRNLREDGEKAAKEVKLLLLGAGESGKSTIVKQMKIIHEDGYSEDECKQYKVVVYSNTIQSIIAIIRAMGRLKIDFGEAARADDARQLFVLAGSAEEGVMTSELAGVIKRLWRDGGVQACFSRSREYQLNDSASYYLNDLDRISQTNYIPTQQDVLRTRVKTTGIVETHFTFKELYFKMFDVGGQRSERKKWIHCFEGVTAIIFCVALSDYDLVLAEDEEMNRMHESMKLFDSICNNKWFTDTSIILFLNKKDLFEEKIKRSPLTICYPEYTGSNTYEEAAAYIQCQFEDLNRRKDTKEVYTHFTCATDAKNVQFVFDAVTDVIIKNNLKECGLY [T329A], the Tm (as a rule, the temperature at which the thermal transition is half complete) was 65 °C.

The series is the same for the next values; noted with them: Rattus norvegicus; pH 7.5; Thermal; Fluorescence; HEPES; NaCl MgCl2 50000 2000; transition: 2; reversible: yes; structure 6MHE; whole UniProt chain shown.
MGCTLSAEDKAAVERSKMIDRNLREDGEKAAKEVKLLLLGAGESGKSTIVKQMKIIHEDGYSEDECKQYKVVVYSNTIQSIIAIIRAMGRLKIDFGEAARADDARQLFVLAGSAEEGVMTSELAGVIKRLWRDGGVQACFSRSREYQLNDSASYYLNDLDRISQTNYIPTQQDVLRTRVKTTGIVETHFTFKELYFKMFDVGGQRSERKKWIHCFEGVTAIIFCVALSDYDLVLAEDEEMNRMHESMKLFDSICNNKWFTDTSIILFLNKKDLFEEKIKRSPLTICYPEYTGSNTYEEAAAYIQCQFEDLNRRKDTKEVYTHFTCSTDTKNVQFVFDAVTDVIIKNNLKECGLY [A326S]: the Tm was 64 °C and 62.5 °C. Take MGCTLSAEDKAAVERSKMIDRNLREDGEKAAKEVKLLLLGAGESGKSTIVKQMKIIHEDGYSEDECKQYKVVVYSNTIQSIIAIIRAMGRLKIDFGEAARADDARQLFVLAGSAEEGVMTSELAGVIKRLWRDGGVQACFSRSREYQLNDSASYYLNDLDRISQTNYIPTQQDVLRTRVKTTGIVETHFTFKELYFKMFDVGAQRSERKKWIHCFEGVTAIIFCVALSDYDLVLAEDEEMNRMHESMKLFDSICNNKWFTDTSIILFLNKKDLFEEKIKRSPLTICYPEYTGSNTYEEAAAYIQCQFEDLNRRKDTKEVYTHFTCATDTKNVQFVFDAVTDVIIKNNLKECGLY [G203A]: the Tm was 57.5 °C.
